assay: soluble on expression in E. coli; label from the status in PepcDB or PDB records

Row | Sequence | soluble on expression in E. coli
1 | GPGTFGTAKARYDFCARDRSELSLKEGDIIKILNKKGQQGWWRGEIYGRIGWFPSNYVEEDYSEYLPETGGGSGSSMTYKLILNGKTLKGETTTEAVDAATAEKVFKQYANDNGVDGEWTYDDATKTFTVTEHSLEHHHHHH | soluble
2 | MGSDKIHHHHHHMSNELESNDVIKISVSHLALGMFVTAIDNAKGALSITNPGQIKTQDAINKLLKSGIKSVWVDVERSADNCGLKKTSAESFEPTKGNPLARKAKPSRDSKQAQVKVILNEAKNLVRKVLSETYEGKAVEVAPFEEIADRMIESVMDDADAMKCISALRTKDAYLLEHSVNVAFLLVTFGKHLGLDKTMLKEMAVGGILHDIGKIKVDNEVLHKPGKLTPEEFAHIKLHQVYAVEIMEQTQGLAQVSKDVCLMHHEKLDGRGYPKGLKGDEIPLHGRMSCIVDIFDALTATRCYKEAMSPAAAFKILISLTPFHLDQALVYEFIRCVGIYPVGSLVQLSDERIGIVWEAKDRDALHPVVKCFYSLKHKRYTEVTMVDLRKAEVNIERGVSPGTLDVDPTPFY | not soluble
3 | MCIGVPGQIRAIDGNQAKVDVCGIQRDVDLTLVGSCDENGQPRLGQWVLVHVGFAMSVINEAEARDTLDALQNMFDVEPDVGALLYGEER | not soluble
4 | MGSDKIHHHHHHMKIDLNADLGEGCASDAELLTLVSSANIACGFHAGDAQIMQACVREAIKNGVAIGAHPSFPDRENFGRSAMQLPPETVYAQTLYQIGALATIARAQGGVMRHVKPHGMLYNQAAKEAQLADAIARAVYACDPALILVGLAGSELIRAGKQYGLTTREEVFADRGYQADGSLVPRSQSGALIENEEQALAQTLEMVQHGRVKSITGEWATVAAQTVCLHGDGEHALAFARRLRSAFAEKGIVVAA | not soluble
5 | MGSDKIHHHHHHMVELQRVTASSLQQSFAGDVYNTGVYLKRTFSDINTHLVTAIGQDSFSQAMLQRFEDEKINTDMVFQSTDKIAGLYAIQTDSKGERSFTYWRNDSAAKQIMQFIGDAAISKISQADMVFFSGISLAVINEEDRDAFWLLIKQCKQAGVSIVFDPNYRARMWHSPDQAKAQFDIAFSVADVVLPGVDDFNQLYGISSVEDIIAFCQPYDINELVIKNGENGINYVINGQQQHFSITPVTNVVDTTSAGDSFNGVYLGARLTGADISTAIKLASQAAGFVIQHKGAIAPKIEFHQFIERQKLIMQ | not soluble
6 | MKKGTVLNSEISSVISRLGHTDTLVVCDAGLPIPNSTARIDMALTQGVPSFMQVVDVVTREMQVEAAILATEIKQQNPQLHETLLTHLEQLQQHQGNTIKISYTTHEQFKKLTADSQAVIRSGECSPYANVILCAGVTF | not soluble
7 | MKQIFIGIIRFYQKFISPMTPPTCRFYPTCSHYGLEAFQKHGALKGFWLTCKRILKCHPFHPGGFDPVPDKKDDKVNSLEHHHHHH | not soluble
8 | MSAKNRLDVFDKKTRDVIESDLVKMRGYKRNIGSRNQEMTMKNVEKKVEQMGAKNEEMFSMISKIMQKPNSTGHLQWDSQTLADLMNKSDSFDDDQESLNMPRSSESSAMSVRNRTLERQSEPVRKSPKAAPKVKNEAGITASYVTSEMSDRRSIDEVMVRAAKNAKREEKFDLGFFKFISLAGHILESSCKHSEDQEDPSCLKCKYDRELKLEERPEMVFARNSLTIQFGRLGSIEFNALDALKMVCADRLPDVKVGASTVWQSARQDRIQQISEHQKPFDWTYTTHYKGTVTGCQVTPTTERIDMERLKRRDEILFSSSITLFEDELADHGIAQLLARVRVMRGYFFVLLRFYMRVDNVLLRVCDTRIVGNEFDGHVIREWQLREAKYGNLGHVDPEELLDVDRAWMHLPVVEEHFDRVSVDRERLF | not soluble
9 | MKIMILGIDIGGANTKITEIEGDNYKIHHIYFPMWKKKDELEDLLKNYNDNVDYVALVMTAELADCYKTKKEGVEDIIDKVEKAFNCPVYVFDVNGNFLTSEEAKKNYLDVSASNWNATAKFVAEFIKDSCILVDMGSTTTDIIPIKDKEVLAEKTDLDRLMNNQLVYVGTLRTPVSFLANKIEFRGKLTNLSSEYFAITADISLILNKITEEDYTCDTPDGAGKDFESCLTRLVRVLCADREMVKDDELIDFANKLYNKLLELIRENVDTIAKRYNLNDVVITGLGEEILKDALDEYNIISIKETYGKDVSLATPSFAVAKLLQKQLDKLEHHHHHH | not soluble
10 | MGHHHHHHSHMLLTPRQDEIVALAKANGRVLVDELAARFSVTPQTIRKDLNDLCDTRVLTRIHGGALFPSGNENVKYEARRAIASVEKQAIGAAAAALIPNNSSLFINIGTTTEAVGEALADHHELMVITNNINVANRLRVFPGIEVVIAGGVVRGSDGGIVGEAAVDFIRQFKVDFAVIGVSAIDEDGALLDFDFREVKVAQAIISNARHVILVSDSLKFERTAPVRIGHLSQVHTFITDHCPVDSIRSICADHDVRLIETEARDA | soluble
11 | MYTLNWQPPYDWSWMLGFLAARAVSSVETVADSYYARSLAVGEYRGVVTAIPDIARHTLHINLSAGLEPVAAECLAKMSRLFDLQCNPQIVNGALGRLGAARPGLRLPGCVDAFEQGVRAILGQLVSVAMAAKLTARVAQLYGERLDDFPEYICFPTPQRLAAADPQALKALGMPLKRAEALIHLANAALEGTLPMTIPGDVEQAMKTLQTFPGIGRWTANYFALRGWQAKDVFLPDDYLIKQRFPGMTPAQIRRYAERWKPWRSYALLHIWYTEGWQPDEA | soluble
12 | MGSDKIHHHHHHMNRRDFLKSALITGAALGLPAGMDPLLTVLKAAERPDLAVVRGTPPAAITRAAIDSLGGMKRFVSRGDVVVVKPNIGWDRTPEYAANTNPEVVGAVVRLCFEAGAKQVKVFDRPVNDPRRTYRQSGIAAAASALGASVLFTDSRKFKDMRINGSSLKSWPLYTEVFEADKVINIPIAKTHGTSKLTLGMKNWMGVMGGWRGRIHQRIDESLVDLATFIKPTLTILDAVRILTDNGPQGGNLADVRRLNMVIAGTDAVAVDAFGATLFGMKPAELGFVRIGHQRRLGSMDLAGMNIRRITL | not soluble
13 | MSYAYLFKYIIIGDTGVGKSCLLLQFTDKRFQPVHDLTIGVEFGARMVTIDGKQIKLQIWDTAGQESFRSITRSYYRGAAGALLVYDITRRDTFNHLTSWLEDARQHSNSNMVIMLIGNKSDLEARREVKREEGEAFAREHGLVFMETSAKTAANVEEAFIDTAKEIYRKIQEGVFDINNEANGIKLGPQHSPSSPNSPGGNATGGLGGGSGCC | not soluble
14 | MGSDKIHHHHHHMMTQLSAPTLTKDPLTTQDRQIIATIVNQSDYSKNCKPEDVVTIWISEDDTTVWVKMIHGYARYHKQSFKRAVAEVKASLSAPVKCNHKEERELKQAAEKIGLLGDCDWLSLSVQYYPDKVIGHAGCYTSQKPQLLTPLAEWDFTLPKWNMPAAICPDCGGHGCGNCGYRGTRAEDLCKPVDGYRLTYVGRTDLQTAHNVYLDGEFLGILFKVRNADELWENDPKTYYWRCGDGVRYWSVKEAVEVLSRTTAPIELPQVCRELVAA | not soluble
15 | MTTEQEFEKVELTADGGVIKTILKKGDEGEENIPKKGNEVTVHYVGKLESTGKVFDSSFDRNVPFKFHLEQGEVIKGWDICVSSMRKNEKCLVRIESMYGYGDEGCGESIPGNSVLLFEIELLSFRELE | soluble
16 | MAHHHHHHSLKIRQARLEDLDRIVELEFENFSVEEAIPPSVFEAHLREIQTSFLVAEKEGRIMGYIEGPVGLHRHLQDQSFTEEIKDYSHEPGGYISVTCLSIAKEAQGLGLGQKLLTALKEVALEDERDGINLTCHDYLIAYYEKHGFVNEGQSQSTFAGETWYDMVWEMKKEG | not soluble
17 | MGSDKIHHHHHHMTTPRRALIVIDVQNEYVTGDLPIEYPDVQSSLANIARAMDAARAAGVPVVIVQNFAPAGSPLFARGSNGAELHPVVSERARDHYVEKSLPSAFTGTDLAGWLAARQIDTLTVTGYMTHNCDASTINHAVHSGLAVEFLHDATGSVPYENSAGFASAEEIHRVFSVVLQSRFAAVASTDEWIAAVQGGTPLARGNIYASNQKARARRATA | not soluble
18 | MSATGPGIVVIDKPAGMTSHDVVGRCRRIFATRRVGHAGTLDPMATGVLVIGIERATKILGLLTAAPKSYAATIRLGQTTSTEDAEGQVLQSVPAKHLTIEAIDAAMERLRGEIRQVPSSVSAIKVGGRRAYRLARQGRSVQLEARPIRIDRFELLAARRRDQLIDIDVEIDCSSGTYIRALARDLGDALGVGGHVTALRRTRVGRFELDQARSLDDLAERPALSLSLDEACLLMFARRDLTAAEASAAANGRSLPAVGIDGVYAACDADGRVIALLRDEGSRTRSVAVLRPATMHPGGVPRGKLAAALEHHHHHH | soluble
19 | GPLGSMSGPVPSRARVYTDVNTHRPREYWDYESHVVEWGNQDDYQLVRKLGRGKYSEVFEAINITNNEKVVVKILKPVKKKKIKREIKILENLRGGPNIITLADIVKDPVSRTPALVFEHVNNTDFKQLYQTLTDYDIRFYMYEILKALDYCHSMGIMHRDVKPHNVMIDHEHRKLRLIDWGLAEFYHPGQEYNVRVASRYFKGPELLVDYQMYDYSLDMWSLGCMLASMIFRKEPFFHGHDNYDQLVRIAKVLGTEDLYDYIDKYNIELDPRFNDILGRHSRKRWERFVHSENQHLVSPEALDFLDKLLRYDHQSRLTAREAMEHPYFYTVVKDQARMG | soluble
20 | MTLTKGSFTYSSGEEYRGEWKEGRRHGFGQLVFADGGTYLGHFENGLFNGFGVLTFSDGSRYEGEFSQGKFNGVGVFIRYDNMTFEGEFKNGRVDGFGLLTFPDGSHGIPRNEGLFENNKLLRREKCSAVVQRAQSASKSARNLTA | soluble
21 | MIVPKGNENIRPGYAMEPKYITIHETANTSKGANALNHAKYLDNQARGNTDRSASWHFTVDDKEIYQHLPLNEVGWHAGNKTGNYESIGIEIAVNSDGNYTKAVENAKKLAAYLMNELNISLDHVQKHQFWSGKNCPAFMIQRGQWDAFLKGTNAYYNEHHKDVIPPPEVPHEKDDITGGWYEQDIRQLAARKIMFGDGNGSYWPNRLVTRAEFANLMSRALNLPAGNAKFTDLNEAHPSLVDGINRAASAGIINGRGNNKFDPNATITRDEAVIMIDRALEYNWIYRKEVKLPFTDQHLAYDKKALQNVYAYGIVKGNERNEFVPKGTATRAESAAFLNRMLKVIEA | not soluble
22 | AEIYNKDGNKLDLYGKIDGLHYFSDDKDVDGDQTYMRLGVKGETQINDQLTGYGQWEYNVQANNTESSSDQAWTRLAFAGLKFGDAGSFDYGRNYGVVYDVTSWTDVLPEFGGDTYGSDNFLQSRANGVATYRNSDFFGLVDGLNFALQYQGKNGSVSGEGATNNGRGALKQNGDGFGTSVTYDIFDGISAGFAYANSKRTDDQNQLLLGEGDHAETYTGGLKYDANNIYLATQYTQTYNATRAGSLGFANKAQNFEVAAQYQFDFGLRPSVAYLQSKGKDLNGYGDQDILKYVDVGATYYFNKNMSTYVDYKINLLDDNSFTRSAGISTDDVVALGLVYQF | soluble
23 | SMGAEPGRPARLDQLLDMPAAGLAVQLRHAWNPEDRSLNVFVKDDDRLTFHRHPVAQSTDGIRGKVGHARGLHAWQINWPARQRGTHAVVGVATARAPLHSVGYTALVGSDAESWGWDLGRSRLYHDGKNQPGVAYPAFLGPDEAFALPDSLLVVLDMDEGTLSFIVDGQYLGVAFRGLKGKKLYPVVSAVWGHCEVTMRYINGLDPE | soluble
24 | MVRKVLIIGGGFSGMAAAIQMRKAGIDVDLVEIDPNWRPEGAGITVNGPTLRALETIGVFDEFARRGFTSSGVDLFTPTGQKIGEIPTPKVAGSDVPGGGGIMRPELGRILADATRGSDVSVRVGCTYTAIEQTGDQVTVAFTDGTTDTYDLVVAADGVHSKTRERFFPEVKPPQYIGQGVWRTVLPRPAEIVRPRMWLGGTVKVGVNPVSQTHLYMFITEARPEKTNLDPATFPDLVTSMLKSFPDPIVQSLIPHVFAAEAAIDYRPLANLLVPAPWNRGRVILIGDTVAATTPHLASGAGIGIESGIILAEELAKAATLQDAFDGFHARRWERCRMVIENSERLCRIEMENGDKAEHARIMRESVMALTQPILEHHHHHH | soluble
